Data from patent US20110104167A1, “Compositions and Methods for Diagnosing and Treating Insulin Resistance” (YEDA RESEARCH AND DEVELOPMENT CO. LTD., priority 2004, published 2011).
Positions count from the first letter of the chain named. Names may count otherwise.

What was measured:
CHO-T cells = assay: Phosphorylation (mobility shift) of truncated IRS-1 PH/PTB constructs in CHO-T cells; assay type: cell-based, Chinese Hamster; conditions: for effect of inhibitor pretreatment on the mobility shift of PH/PTB-L induced by chronic insulin: 30 min inhibitor, then 100 nM insulin 30 min
Description: FIGS. 7a-c show In vivo phosphorylation of PH/PTB-L in response to insulin. CHO-T cells were transiently transfected with pcDNA3-Myc-PH/PTB (1-1290 nt) or with an insert-free plasmid (control). Twenty-four hours post-transfection, the cells were deprived of serum for 16 h and were then treated with insulin for the indicated time periods. Cell extracts (100 μg) were resolved on 10% SDS-PAGE and immunoblotted with anti-pY or anti-Myc antibodies (FIG. 7a). In parallel, samples (100 μg, 40 μl) were incubated with 3 units (U) of calf intestine phosphatase (CIP) at 37° C. for 1 h. The samples were resolved on 10% SDS-PAGE and immunoblotted with anti-Myc antibodies (FIG. 7b). The results are of a representative of two experiments. FIG. 7c—CHO^PH/PTB-L cells were starved in serum-free F12 medium for 16 h. The cells were treated for 30 min with the indicated inhibitors prior to being treated with 100 nM insulin for 30 min. Cell extracts were prepared, samples were resolved on 10% SDS-PAGE and were immunoblotted with anti-Myc antibodies. Results are of a representative of three experiments.
FIGS. 8a-b show the effects of insulin on Serine phosphorylation of Myc-PH/PTB-L^7A CHO-T cells were transiently transfected with constructs encoding Myc-PH/PTB-L (1-1290 nt), either wild type (WT) or the 7A mutant (FIG. 8a). Alternatively, the cells were transfected or with the constructs encoding Myc-PH/PTB-L (1-1290 nt; 1-430 aa) or Myc-PH/PTB-S (1-1095 nt; 1-365 aa, FIG. 8b). Following 24 hours in culture, the cells were incubated in serum-free F12 medium for 16 ch prior to being treated with insulin for the indicated times. Cell extracts were resolved on 10% SDS-PAGE and immunoblotted with anti-Myc antibodies. Results are of a representative of three experiments.
FIGS. 9a-b show the effects of insulin and calyculin A on Ser phosphorylation of PH/PTB-L mutants. FIG. 9a—CHO-T cells were transiently transfected with constructs expressing either Myc-PH/PTB^WT or the following PH/PTB mutants: S336A, S407A, S408A, S407/8A and S3A (S336/407/408A). Following 24 hours the cells were deprived of serum for 16 h, and were treated with insulin for the indicated times. Cell extracts were resolved on 10% SDS-PAGE and immunoblotted with anti-Myc antibodies. The results are of a representative of two-three experiments. FIG. 9b—CHO-T cells were transiently transfected with pcDNA3-myc-PH/PTB^WT or pcDNA3-myc-PH/PTB^S408A. Following 24 hours the cells were starved for 16 h and were then treated either with 100 nM insulin for 30 min or with 25 nM calyculin A for 60 min. Cell extracts were resolved on 10% SDS-PAGE and were immunoblotted with anti-Myc antibodies. Results are of a representative of two experiments.
Plasmids construction—i. Myc-tagged-IRS-1 The cDNA, encoding for the mouse IRS-1 in the pCNA-3 expression plasmid (35) was digested with Hind III and BspE-1. This deleted a 9 by fragment from the 5′-IRS-1 cDNA that was replaced by a double stranded synthetic oligonucleotide encoding the Myc tag and the missing amino-acids of IRS-1 (bold) […] (SEQ ID NO. 9). ii. Myc-tagged truncated IRS-1 (aa 1-430, PH/PTB-L) Myc-tagged mouse IRS-1 cDNA (N-terminus, 1-1290 nt), encoding for the first 430 aa of IRS-1, was PCR-amplified with the following primers. 5′-CAGGATCCGCATATGGAACAAAAGCTC-3′ (sense) (SEQ ID NO. 10); 5′-GAGAATTCATCAGGGACTAGAACCATA-3′ (anti-sense) (SEQ ID NO. 11), using as a template the pcDNA3-Myc-IRS-1 plasmid. The PCR product was ligated into a pGEM-T. The insert was excised from pGEM-T with BamH I and EcoR I (italic), and then was ligated into pcDNA3 at the same restriction sites to generate pcDNA3-Myc-IRS-1^PH/PTB-L. iii. Myc-tagged truncated IRS-1 (aa 1-365, PH/PTB-S) Myc-tagged mouse IRS-1 cDNA (N-terminus, 1-1095 nt), encoding for the first 365 aa of IRS-1, was PCR-amplified with the following primers: 5′ […]-3′ (sense) (SEQ ID NO. 12); 5′ […] 3′ (anti sense) (SEQ ID NO. 13) using as a template the pcDNA3-Myc-IRS-1. […]

Fao cells = assay: Effect of inducers of insulin resistance on insulin-stimulated Tyr phosphorylation of IRS-1 in Fao cells; assay type: cell-based, rat
Description: FIGS. 5a-c show the effects of TPA and anisomycin on insulin-induced Tyr phosphorylation of IRS-1^7A in Fao cells. Fao cells were infected with Ad-Myc-IRS-1^WT or Ad-Myc-IRS-1^7A at 7×10^7 PFU/ml. Following 48 hours the cells were deprived of serum for 16 h, and were then treated for 60 min with 200 nM TPA (FIG. 5a); 50 ng/ml of anisomycin (FIG. 5b) or 1 μg/ml of anisomycin (FIG. 5c). This was followed by treatment with 100 nM insulin for 2 min (FIG. 5a) or for the indicated times (FIGS. 5b-c). Cell extracts were prepared, and samples (1 mg) were subjected to immunoprecipitation (IP) with anti-Myc antibodies (FIG. 5a). Immunocomplexes were resolved on 7.5 SDS-PAGE and were immunoblotted with the indicated antibodies. Alternatively, total cell extracts (FIGS. 5b-c) were resolved on 7.5% SDS-PAGE and immunoblotted with the indicated antibodies. Results of a representative of four experiments are presented. The results of two independent experiments done in duplicates were quantified (FIG. 5a, right panel).
FIGS. 6a-b show the dose dependent effect of Palmitic acid on Insulin-induced Tyr phosphorylation of IRS-1 mutants in Fao cells. Fao cells were infected with Ad-Myc-IRS-1^WT or Ad-Myc-IRS-1^7A at 7×10^7 PFU/ml. Following 24 hours the cells were deprived of serum for 12 h, and were then further incubated for 12 h with or without the indicated concentrations of palmitic acid in serum free medium prior to being stimulated with 100 nM insulin for the indicated times. Cell extracts (100 μg) were resolved on 7.5% SDS-PAGE and immunoblotted with anti-PY and anti-Myc antibodies. The results of two independent experiments done in duplicates were quantified.
FIGS. 11a-c show the effects of TPA and anisomycin on insulin-stimulated Tyr phosphorylation of IRS-1^WT, IRS-1^7A and IRS-1^408A. Fao cells were infected with Adeno-myc-IRS-1 wild type (WT); the 7A mutant; or the S408A mutant at a titer of 4-6×10^7 PFU/ml. Following 48 hours the cells were deprived of serum for 16 h, and were then treated for 60 min with 200 nM TPA (FIG. 11a), or 50 ng/ml anisomycin (FIG. 11b), followed by treatment with 100 nM insulin for the indicated times. Cell extracts were prepared, samples (1 mg) were subjected to immunoprecipitation (IP) with anti-Myc antibodies. Immunocomplexes were resolved on 7.5% SDS-PAGE and immunoblotted with anti-PY or anti IRS-1 antibodies.
Infection of Fao cells with adenovirus—Fao cells were grown in RPMI medium containing 10% FCS. At 70% confluence cells were infected with adenoviruses harboring the gene of interest at a titer of 7 10^7 PFU/ml. After incubation for 2 h hours at 37° C., the virus-containing medium was diluted 1:5 in fresh RPMI medium. After 24 h the medium was replaced with a fresh RPMI medium containing 10% FCS. […]

COc1cccc(-c2cc(=O)c3ccccc3o2)c1N [PD98059]
effect of inhibitor pretreatment on the mobility shift of PH/PTB-L induced by chronic insulin (CHO-T cells): ineffective

CCCCCCCCCCCCCCCC(=O)O [FFA, Palmitic acid]
reduction in insulin-stimulated Tyr phosphorylation of IRS-1^WT by FFA pre-treatment (Fao cells; FFA 0.5-0.75 mM): ~35%

CCCCCCCCCCCCCC(=O)O[C@@H]1[C@@H](C)[C@@]2(O)[C@@H](C=C(CO)C[C@]3(O)C(=O)C(C)=C[C@@H]23)[C@@H]2C(C)(C)[C@]12OC(C)=O [TPA, phorbol 12-myristate 13-acetate]
inhibition of insulin-stimulated Tyr phosphorylation of Myc-IRS-1^WT by TPA pretreatment (Fao cells; 200 nM TPA 60 min, then 100 nM insulin 2 min): ~40%

C[S+]([O-])c1ccc(-c2nc(-c3ccncc3)c(-c3ccc(F)cc3)[nH]2)cc1 (stereo not drawn) [SB203580]
effect of inhibitor pretreatment on the mobility shift of PH/PTB-L induced by chronic insulin (CHO-T cells): ineffective

B1: PH/PTB-L^S336A: PH/PTB-L with Ser336 mutated to Ala (protein, UniProt P35569 1-430, looked up, variant S336A)
chain: MASPPDTDGFSDVRKVGYLRKPKSMHKRFFVLRAASEAGGPARLEYYENEKKWRHKSSAPKRSIPLESCFNINKRADSKNKHLVALYTRDEHFAIAADSEAEQDSWYQALLQLHNRAKAHHDGAGGGCGGSCSGSSGVGEAGEDLSYDTGPGPAFKEVWQVILKPKGLGQTKNLIGIYRLCLTSKTISFVKLNSEAAAVVLQLMNIRRCGHSENFFFIEVGRSAVTGPGEFWMQVDDSVVAQNMHETILEAMRAMSDEFRPRSKSQSSSSCSNPISVPLRRHHLNNPPPSQVGLTRRSRTESITATSPASMVGGKPGSFRVRASSDGEGTMSRPAAVDGSPVSPSTNRTHAHRHRGSSRLHPPLNHSRSIPMPSSRCSPSATSPVSLSSSSTSGHGSTSDCLFPRRSSASVSGSPSDGGFISSDEYGSSP
modifications: Myc tag
notes: PH/PTB-L with Ser336 mutated to Ala
mobility shift following 30 min insulin treatment (CHO-T cells; CHO-T cells): identical mobility-shifts as PH/PTB-L^WT

B2: PH/PTB-L^407/S408A: PH/PTB-L with Ser407 and Ser408 mutated to Ala (protein, UniProt P35569 1-430, looked up, variant S407A S408A)
chain: B1 chain with A336S, S407A, S408A
modifications: Myc tag
notes: PH/PTB-L with Ser407 and Ser408 mutated to Ala
mobility shift following 30 min insulin treatment (CHO-T cells; CHO-T cells): abolished the mobility shift

B3: PH/PTB-L^S408A: PH/PTB-L with Ser408 mutated to Ala (protein, UniProt P35569 1-430, looked up, variant S408A)
chain: B1 chain with A336S, S408A
modifications: Myc tag
notes: PH/PTB-L with Ser408 mutated to Ala
mobility shift following 30 min insulin treatment (CHO-T cells; CHO-T cells): abolished the mobility shift

B4: PH/PTB-L^S407A: PH/PTB-L with Ser407 mutated to Ala (protein, UniProt P35569 1-430, looked up, variant S407A)
chain: B1 chain with A336S, S407A
modifications: Myc tag
notes: PH/PTB-L with Ser407 mutated to Ala
mobility shift following 30 min insulin treatment (CHO-T cells; CHO-T cells): identical mobility-shifts as PH/PTB-L^WT

B5: PH/PTB-S: Myc-tagged truncated mouse IRS-1 (aa 1-365), lacks S407 and S408 (protein, UniProt P35569 1-365, looked up, fragment)
chain: MASPPDTDGFSDVRKVGYLRKPKSMHKRFFVLRAASEAGGPARLEYYENEKKWRHKSSAPKRSIPLESCFNINKRADSKNKHLVALYTRDEHFAIAADSEAEQDSWYQALLQLHNRAKAHHDGAGGGCGGSCSGSSGVGEAGEDLSYDTGPGPAFKEVWQVILKPKGLGQTKNLIGIYRLCLTSKTISFVKLNSEAAAVVLQLMNIRRCGHSENFFFIEVGRSAVTGPGEFWMQVDDSVVAQNMHETILEAMRAMSDEFRPRSKSQSSSSCSNPISVPLRRHHLNNPPPSQVGLTRRSRTESITATSPASMVGGKPGSFRVRASSDGEGTMSRPASVDGSPVSPSTNRTHAHRHRGSSRLHPPLN
modifications: Myc tag
notes: Myc-tagged truncated mouse IRS-1 (aa 1-365), lacks S407 and S408
mobility shift (Ser phosphorylation) following prolonged insulin treatment (CHO-T cells; CHO-T cells, prolonged insulin): no decrease in its mobility
